Laboratory results: article PMC3438949
Each block holds one substance with its values, some of them ahead of it.

Target: tapasin-ERp57 heterodimer, endogenous (human (endogenous in human cell lines)) (UniProt O15533)
Assay: co-IP

Sequence of UniProt O15533 (O15533 21-448, chain 1 of 2): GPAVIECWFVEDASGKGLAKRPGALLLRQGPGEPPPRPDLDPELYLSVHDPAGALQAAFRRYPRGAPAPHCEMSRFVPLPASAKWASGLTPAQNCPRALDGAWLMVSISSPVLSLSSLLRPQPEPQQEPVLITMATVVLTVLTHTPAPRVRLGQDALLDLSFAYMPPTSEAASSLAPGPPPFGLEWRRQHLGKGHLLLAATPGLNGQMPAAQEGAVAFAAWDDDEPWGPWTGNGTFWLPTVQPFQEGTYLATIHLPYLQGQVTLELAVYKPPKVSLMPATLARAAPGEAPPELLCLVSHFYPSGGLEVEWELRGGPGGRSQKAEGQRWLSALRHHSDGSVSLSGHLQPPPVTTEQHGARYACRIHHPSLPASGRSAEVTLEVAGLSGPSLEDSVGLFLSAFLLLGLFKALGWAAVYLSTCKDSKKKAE
Sequence of UniProt O15533 (P30101 25-505, chain 2 of 2, further chain): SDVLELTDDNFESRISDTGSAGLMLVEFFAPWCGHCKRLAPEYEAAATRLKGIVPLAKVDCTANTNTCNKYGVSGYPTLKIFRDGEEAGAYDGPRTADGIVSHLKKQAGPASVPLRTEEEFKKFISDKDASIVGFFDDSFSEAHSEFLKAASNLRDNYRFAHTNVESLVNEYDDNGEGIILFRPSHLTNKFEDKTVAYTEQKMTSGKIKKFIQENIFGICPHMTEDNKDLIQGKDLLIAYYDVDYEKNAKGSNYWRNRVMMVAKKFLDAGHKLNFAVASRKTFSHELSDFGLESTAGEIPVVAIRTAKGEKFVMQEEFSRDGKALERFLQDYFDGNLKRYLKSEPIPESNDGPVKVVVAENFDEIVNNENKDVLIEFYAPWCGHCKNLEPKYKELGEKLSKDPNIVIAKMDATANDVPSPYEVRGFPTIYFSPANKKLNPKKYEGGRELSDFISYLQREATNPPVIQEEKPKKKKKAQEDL

percent of HLA-A2-CFP precipitated by PaSta1 alone (HeLaM.A2-CFP cells): 20%
Substance: CFP-tagged HLA-A2 (from UniProt P61769 21-119) (complex)

percent of PLC-associated HLA-C4 precipitated by PaSta1 alone (C1R.A2-His cells): 60%
Substance: HLA-C4, endogenous in C1R cells (from UniProt P61769 21-119) (complex)

percent of endogenous MHC I precipitated by PaSta1 alone (HeLaM.A2-CFP cells): 60%
Substance: endogenous MHC I of HeLaM cells (HLA-A6802, -B1503 and -C1203) (from UniProt P61769 21-119) (complex)
